The values below come from patent US20170253656A1 (SUTRO BIOPHARMA, published 2017).

Usually Kd stands for a measure of binding affinity in units of concentration. The koff is the rate constant with which the complex falls apart. Usually kon stands for the second-order rate constant of association. Read a low kon as slower complex formation.

Sequences and labels used below:
B1: HC 1251_A06 (wt)/LC 1337_A10 (wt) (antibody, human IgG1, kappa, V domains shown)
VH: QVQLVESGGGVVQPGRSLRLSCAASGFDFSSYGMHWVRQAPDKGLEWVAVIWDDGSDRYYADSVKGRFTISRDNSKNTLYLQMNSLRAEDTAVYYCARGGTRVLGAIHGTDVWGQGTTVTVSS
VL: DIQMTQSPSSLSASVGDRVTITCRASQGISSWVAWYQQKPEKAPKSLIYGSSRLQSGVPSRFSGSGSGTDFTLTISSLQPEDFATYYCQQYNTYPLTFGGGTKVEIKR
notes: IgG format
B2: HC 1251_B08 (wt)/LC 1337_A07 (wt) (antibody, human IgG1, kappa, V domains shown)
VH: QVQLVESGGGVVQPGRSLRLSCAASGFNFSDYGMHWVRQAPDKGLEWVAVIWYDGSISYYADSVKGRFTISRDNSKNTLYLQMNSLRAEDTAVYYCARGGTVEHGAVYGTDVWGQGATVTVSS
VL: DIQMTQSPSSLSASVGDRVTITCRASQGISSWVAWYQQKPEKAPKSLIYGASRLQSGVPSRFSGSGSGTDFTLTISSLQPEDFATYYCQQYHTYPLTFGGGTKVEIKR
notes: IgG format
B3: HC 1251_A06 (g)/LC 1337_A07 (wt) (antibody, human IgG1, kappa, V domains shown)
VH: QVQLVESGGGVVQPGRSLRLSCAASGFDFSSYGMHWVRQAPGKGLEWVAVIWDDGSDRYYADSVKGRFTISRDNSKNTLYLQMNSLRAEDTAVYYCARGGTRVLGAIHGTDVWGQGTTVTVSS
VL: DIQMTQSPSSLSASVGDRVTITCRASQGISSWVAWYQQKPEKAPKSLIYGASRLQSGVPSRFSGSGSGTDFTLTISSLQPEDFATYYCQQYHTYPLTFGGGTKVEIKR
notes: IgG format
B4: HC 1251_A06 (g)/LC 1275_C10 (wt) (antibody, human IgG1, kappa, V domains shown)
VH: QVQLVESGGGVVQPGRSLRLSCAASGFDFSSYGMHWVRQAPGKGLEWVAVIWDDGSDRYYADSVKGRFTISRDNSKNTLYLQMNSLRAEDTAVYYCARGGTRVLGAIHGTDVWGQGTTVTVSS
VL: DIQMTQSPSSLSASVGDRVTITCRASQGVSSWLAWYQQKPEKAPKSLIYSARYLQSGVPSRFSGSGSGTDFTLTISSLQPEDFATYYCQQYNLYPLTFGGGTKVEIKR
notes: IgG format
B5: HC 1251_A06 (g)/LC 1275_C10 (g) (antibody, human IgG1, kappa, V domains shown)
VH: QVQLVESGGGVVQPGRSLRLSCAASGFDFSSYGMHWVRQAPGKGLEWVAVIWDDGSDRYYADSVKGRFTISRDNSKNTLYLQMNSLRAEDTAVYYCARGGTRVLGAIHGTDVWGQGTTVTVSS
VL: DIQMTQSPSSVSASVGDRVTITCRASQGVSSWLAWYQQKPGKAPKLLIYSARYLQSGVPSRFSGSGSGTDFTLTISSLQPEDFATYYCQQYNLYPLTFGGGTKVEIKR
notes: IgG format
B6: HC 1251_B08 (wt)/LC 1275_C10 (g) (antibody, human IgG1, kappa, V domains shown)
VH: QVQLVESGGGVVQPGRSLRLSCAASGFNFSDYGMHWVRQAPDKGLEWVAVIWYDGSISYYADSVKGRFTISRDNSKNTLYLQMNSLRAEDTAVYYCARGGTVEHGAVYGTDVWGQGATVTVSS
VL: DIQMTQSPSSVSASVGDRVTITCRASQGVSSWLAWYQQKPGKAPKLLIYSARYLQSGVPSRFSGSGSGTDFTLTISSLQPEDFATYYCQQYNLYPLTFGGGTKVEIKR
notes: IgG format
B7: HC 1251_B08 (wt)/LC 1337_A09 (wt) (antibody, human IgG1, kappa, V domains shown)
VH: QVQLVESGGGVVQPGRSLRLSCAASGFNFSDYGMHWVRQAPDKGLEWVAVIWYDGSISYYADSVKGRFTISRDNSKNTLYLQMNSLRAEDTAVYYCARGGTVEHGAVYGTDVWGQGATVTVSS
VL: DIQMTQSPSSLSASVGDRVTITCRASQGIGSWLAWYQQKPEKAPKSLIYAADRLQSGVPSRFSGSGSGTDFTLTISSLQPEDFATYYCQQYHTYPLTFGGGTKVEIKR
notes: IgG format
B8: HC 1251_A06 (g)/LC 1337_A09 (wt) (antibody, human IgG1, kappa, V domains shown)
VH: QVQLVESGGGVVQPGRSLRLSCAASGFDFSSYGMHWVRQAPGKGLEWVAVIWDDGSDRYYADSVKGRFTISRDNSKNTLYLQMNSLRAEDTAVYYCARGGTRVLGAIHGTDVWGQGTTVTVSS
VL: DIQMTQSPSSLSASVGDRVTITCRASQGIGSWLAWYQQKPEKAPKSLIYAADRLQSGVPSRFSGSGSGTDFTLTISSLQPEDFATYYCQQYHTYPLTFGGGTKVEIKR
notes: IgG format
B9: HC 1251_A06 (g)/LC 1337_A07 (g) (antibody, human IgG1, kappa, V domains shown)
VH: QVQLVESGGGVVQPGRSLRLSCAASGFDFSSYGMHWVRQAPGKGLEWVAVIWDDGSDRYYADSVKGRFTISRDNSKNTLYLQMNSLRAEDTAVYYCARGGTRVLGAIHGTDVWGQGTTVTVSS
VL: DIQMTQSPSSVSASVGDRVTITCRASQGISSWVAWYQQKPGKAPKLLIYGASRLQSGVPSRFSGSGSGTDFTLTISSLQPEDFATYYCQQYHTYPLTFGGGTKVEIKR
notes: IgG format
B10: HC 1251_B08 (wt)/LC 1337_A09 (g) (antibody, human IgG1, kappa, V domains shown)
VH: QVQLVESGGGVVQPGRSLRLSCAASGFNFSDYGMHWVRQAPDKGLEWVAVIWYDGSISYYADSVKGRFTISRDNSKNTLYLQMNSLRAEDTAVYYCARGGTVEHGAVYGTDVWGQGATVTVSS
VL: DIQMTQSPSSVSASVGDRVTITCRASQGIGSWLAWYQQKPGKAPKLLIYAADRLQSGVPSRFSGSGSGTDFTLTISSLQPEDFATYYCQQYHTYPLTFGGGTKVEIKR
notes: IgG format
B11: HC 1251_B08 (g)/LC 1337_A10 (wt) (antibody, human IgG1, kappa, V domains shown)
VH: QVQLVESGGGVVQPGRSLRLSCAASGFNFSDYGMHWVRQAPGKGLEWVAVIWYDGSISYYADSVKGRFTISRDNSKNTLYLQMNSLRAEDTAVYYCARGGTVEHGAVYGTDVWGQGTTVTVSS
VL: DIQMTQSPSSLSASVGDRVTITCRASQGISSWVAWYQQKPEKAPKSLIYGSSRLQSGVPSRFSGSGSGTDFTLTISSLQPEDFATYYCQQYNTYPLTFGGGTKVEIKR
notes: IgG format
B12: HC 1251_A06 (g)/LC 1337_A10 (g) (antibody, human IgG1, kappa, V domains shown)
VH: QVQLVESGGGVVQPGRSLRLSCAASGFDFSSYGMHWVRQAPGKGLEWVAVIWDDGSDRYYADSVKGRFTISRDNSKNTLYLQMNSLRAEDTAVYYCARGGTRVLGAIHGTDVWGQGTTVTVSS
VL: DIQMTQSPSSVSASVGDRVTITCRASQGISSWVAWYQQKPGKAPKLLIYGSSRLQSGVPSRFSGSGSGTDFTLTISSLQPEDFATYYCQQYNTYPLTFGGGTKVEIKR
notes: IgG format
B13: HC 1251_B08 (wt)/LC 1337_A07 (g) (antibody, human IgG1, kappa, V domains shown)
VH: QVQLVESGGGVVQPGRSLRLSCAASGFNFSDYGMHWVRQAPDKGLEWVAVIWYDGSISYYADSVKGRFTISRDNSKNTLYLQMNSLRAEDTAVYYCARGGTVEHGAVYGTDVWGQGATVTVSS
VL: DIQMTQSPSSVSASVGDRVTITCRASQGISSWVAWYQQKPGKAPKLLIYGASRLQSGVPSRFSGSGSGTDFTLTISSLQPEDFATYYCQQYHTYPLTFGGGTKVEIKR
notes: IgG format
B14: HC 1251_A06 (g)/LC 1337_A09 (g) (antibody, human IgG1, kappa, V domains shown)
VH: QVQLVESGGGVVQPGRSLRLSCAASGFDFSSYGMHWVRQAPGKGLEWVAVIWDDGSDRYYADSVKGRFTISRDNSKNTLYLQMNSLRAEDTAVYYCARGGTRVLGAIHGTDVWGQGTTVTVSS
VL: DIQMTQSPSSVSASVGDRVTITCRASQGIGSWLAWYQQKPGKAPKLLIYAADRLQSGVPSRFSGSGSGTDFTLTISSLQPEDFATYYCQQYHTYPLTFGGGTKVEIKR
notes: IgG format
B15: HC 1251_B08 (g)/LC 1337_A07 (wt) (antibody, human IgG1, kappa, V domains shown)
VH: QVQLVESGGGVVQPGRSLRLSCAASGFNFSDYGMHWVRQAPGKGLEWVAVIWYDGSISYYADSVKGRFTISRDNSKNTLYLQMNSLRAEDTAVYYCARGGTVEHGAVYGTDVWGQGTTVTVSS
VL: DIQMTQSPSSLSASVGDRVTITCRASQGISSWVAWYQQKPEKAPKSLIYGASRLQSGVPSRFSGSGSGTDFTLTISSLQPEDFATYYCQQYHTYPLTFGGGTKVEIKR
notes: IgG format
B16: HC 1251_B08 (wt)/LC 1275_C10 (wt) (antibody, human IgG1, kappa, V domains shown)
VH: QVQLVESGGGVVQPGRSLRLSCAASGFNFSDYGMHWVRQAPDKGLEWVAVIWYDGSISYYADSVKGRFTISRDNSKNTLYLQMNSLRAEDTAVYYCARGGTVEHGAVYGTDVWGQGATVTVSS
VL: DIQMTQSPSSLSASVGDRVTITCRASQGVSSWLAWYQQKPEKAPKSLIYSARYLQSGVPSRFSGSGSGTDFTLTISSLQPEDFATYYCQQYNLYPLTFGGGTKVEIKR
notes: IgG format
B17: HC 1251_A06 (g)/LC 1337_A10 (wt) (antibody, human IgG1, kappa, V domains shown)
VH: QVQLVESGGGVVQPGRSLRLSCAASGFDFSSYGMHWVRQAPGKGLEWVAVIWDDGSDRYYADSVKGRFTISRDNSKNTLYLQMNSLRAEDTAVYYCARGGTRVLGAIHGTDVWGQGTTVTVSS
VL: DIQMTQSPSSLSASVGDRVTITCRASQGISSWVAWYQQKPEKAPKSLIYGSSRLQSGVPSRFSGSGSGTDFTLTISSLQPEDFATYYCQQYNTYPLTFGGGTKVEIKR
notes: IgG format

The test has as its target T1, hu-CD74 antigen (R&D SYSTEMS catalog #3590-CD-050) (human, UniProt P04233-2 73-232, limits assumed).
T1 construct: Bought antigen; also called rhCD74; human CD74
T1 sequence (looked up): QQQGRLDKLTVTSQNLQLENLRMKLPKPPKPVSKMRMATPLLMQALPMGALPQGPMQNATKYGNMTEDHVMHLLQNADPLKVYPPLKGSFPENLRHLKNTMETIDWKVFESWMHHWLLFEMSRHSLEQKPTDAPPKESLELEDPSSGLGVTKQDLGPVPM
In words: SPR (Biacore T200), IgG captured on anti-human Fc, rhCD74 analyte. As for the experimental part: Kinetic binding experiments were performed at 25° C. using 1×HBS-EP+buffer. Kinetic data was collected by injecting test and control antibodies at concentrations of 10, 5 and 2.5 μg/mL for 12 s at a flow rate of 10 μl/min on flow cells 2, 3 and 4 respectively, followed by a buffer wash for 30 s at the same flow rate. Kinetic characterization of antibody samples was carried out with 8 concentrations of a 1:2 dilution series of rhCD74 antigen (R&D Systems) and 2 injections of 0 nM antigen (buffer only). […] Between each ligand capture and analyte binding cycle, regeneration was carried out using 2 injections of 3M MgCl₂ for 30 seconds at 30 μL/min, followed by a 30 second buffer wash step.
For B1, the dissociation constant Kd was 0.205 nM, the off-rate (koff) is 0.000174 s⁻¹ and the on-rate constant (kon) was determined as 847000 M⁻¹ s⁻¹.

Molecule B2 displayed a Kd of 0.211 nM, a koff of 8.01e-05 s⁻¹ and a kon of 379000 M⁻¹ s⁻¹.

The molecule B3 came in with a Kd of 0.166 nM, a koff of 9.4e-05 s⁻¹ and an on-rate constant (kon) of 568000 M⁻¹ s⁻¹.

As for B4, the affinity, expressed as Kd, was 0.341 nM; the off-rate (koff) was 0.000177 s⁻¹; the kon is 520000 M⁻¹ s⁻¹.

In the case of B5, binding was characterised by a dissociation constant (Kd) of 0.209 nM, the koff turned out to be 0.000148 s⁻¹ and the on-rate (kon) is 705000 M⁻¹ s⁻¹.

Consider B6, for which the Kd is 0.437 nM, the koff is 0.000124 s⁻¹ and the kon was 284000 M⁻¹ s⁻¹.

With B7, binding was characterised by a dissociation constant (Kd) of 0.108 nM, the koff amounted to 0.000116 s⁻¹ and the kon was 1.07e+06 M⁻¹ s⁻¹.

Molecule B8 yielded a Kd of 0.189 nM, a koff of 8.63e-05 s⁻¹ and a kon of 457000 M⁻¹ s⁻¹.

As for B9, the affinity, expressed as Kd, was 0.168 nM; the off-rate (koff) was found to be 7.1e-05 s⁻¹; the on-rate constant (kon) worked out at 424000 M⁻¹ s⁻¹.

B10 yielded an equilibrium dissociation constant (Kd) of 0.347 nM, a koff of 0.000115 s⁻¹ and an association rate constant (kon) of 332000 M⁻¹ s⁻¹.

In turn, B11 displayed a dissociation constant (Kd) of 0.385 nM, a koff of 0.00012 s⁻¹ and a kon of 312000 M⁻¹ s⁻¹.

For the molecule B12, binding was characterised by a dissociation constant (Kd) of 0.389 nM, the koff came to 0.000148 s⁻¹ and the kon is 380000 M⁻¹ s⁻¹.

In turn, B13 registered a Kd of 0.611 nM, an off-rate constant (koff) of 0.000142 s⁻¹ and an on-rate (kon) of 232000 M⁻¹ s⁻¹.

In turn, B14 registered a dissociation constant (Kd) of 0.131 nM, a koff of 7.26e-05 s⁻¹ and a kon of 552000 M⁻¹ s⁻¹.

Molecule B15 registered a Kd of 0.349 nM, a koff of 9.23e-05 s⁻¹ and an association rate constant (kon) of 265000 M⁻¹ s⁻¹.

Take B16: the Kd came to 0.191 nM, the koff came out at 0.000119 s⁻¹ and the kon is 623000 M⁻¹ s⁻¹.

With B17, the dissociation constant (Kd) was determined as 0.188 nM, the koff came out at 9.03e-05 s⁻¹ and the on-rate (kon) turned out to be 479000 M⁻¹ s⁻¹.
